Measurements published in patent publication US11110182B2, “Multifunctional RNA nanoparticles and methods for treating cancer and therapeutic resistant cancer” (University of Cincinnati, priority 2016, dated 2021).

Assays:
[1] = test system: ERα target genes TFF-1, c-Myc, cyclin D1; experiment: mRNA levels of ERα target genes by real-time PCR in BT474 cells; type: cell-based, human; conditions: BT474, 48 h
Experimental: FIG. 3A) BT474 cells were incubated with 10 μg/mL control and pRNA-HER2apt-siMED1 nanoparticles for 48 h, and MED1 mRNA level was determined by real-time PCR. FIG. 3B) BT474 cells were incubated directly with (as indicated by -) or transfected with indicated pRNAs using lipofectamine 2000. At 48 h post treatment, MED1 protein levels were determined by western blotting. FIG. 3C) BT474 cells were treated with 10 μg/mL pRNA nanoparticles for 48 h and assayed for cell viability by MTT assay. FIG. 3D) Cells were treated as above and seeded for migration, and FIG. 3E) invasion transwell assays. Scale bar: 50 μm. FIG. 3F) After pRNA treatment for 48 h, the mRNA levels of ERα target genes TFF-1, FIG. 3G) c-Myc, and FIG. 3H) cyclin D1 in BT474 cells were determined by real-time PCR.
Cell culture. Human breast cancer luciferase-overexpressing BT474 and MDA-MB-231 cells were maintained in DMEM medium (Hyclone, Thermo Scientific) supplemented with 10% fetal bovine serum (FBS, Sigma) and 1% penicillin/streptomycin (Corning) at 37° C. in a humidified atmosphere with 5% CO2.^53 • Generation of pRNA nanoparticles. The two strands of pRNA were synthesized with the DNA templates, which were amplified with overlapping primers (Sigma) by PCR methods, using a T7 promoter-controlled in vitro RNA transcription system as previously described^33 (Table 1). All the CTP and UTP used for synthesis of the pRNA nanoparticles were 2′-fluoro modified, except the control unmodified pRNA nanoparticles used in the stability assays. […] The hydrodynamic diameter and Tm value of pRNA nanoparticles were determined using dynamic light scattering and TGGE assay, respectively, as previously described.^54 The AFM imaging of the pRNA nanoparticles was performed at the University of Nebraska Medical Center imaging facility as previously reported.^55 Briefly, the pRNA nanoparticles (5 μL) were deposited on APS modified mica ^56 for a total of 2 min of incubation time. […] After washing three times with PBS, the cellular uptake of pRNAs was determined using a BD LSRFortessa™ flow cytometer. • Real-time PCR. […]

[2] = test system: ERα target genes TFF-1, c-Myc, cyclin D1 and MMP-9; experiment: Gene expression in xenograft tumor tissues by real-time PCR; type: in vivo, athymic nude mice
From the text: FIG. 6A) Whole lung tissues were fixed, embedded, and sectioned for H&E staining, and FIG. 6B) metastasis foci in the whole lung tissues were then counted. Arrow indicates the metastasis foci. Scale bar: 100 μm. FIG. 6C) After digesting tumor tissues with trypsin and 0.1% collagenase, tumor cells were stained for CD44 and CD24, and FIG. 6D) analyzed for CD44^+CD24^−/low stem cell population using flow cytometry. FIG. 6E) Total RNA in the tumor tissues was extracted using TRIZOL reagent, and the expression of TFF-1, FIG. 6F) c-Myc, FIG. 6G) cyclin D1, and FIG. 6H) MMP-9 were determined by real-time PCR.
Cell culture. Human breast cancer luciferase-overexpressing BT474 and MDA-MB-231 cells were maintained in DMEM medium (Hyclone, Thermo Scientific) supplemented with 10% fetal bovine serum (FBS, Sigma) and 1% penicillin/streptomycin (Corning) at 37° C. in a humidified atmosphere with 5% CO2.^53 • Generation of pRNA nanoparticles. The two strands of pRNA were synthesized with the DNA templates, which were amplified with overlapping primers (Sigma) by PCR methods, using a T7 promoter-controlled in vitro RNA transcription system as previously described^33 (Table 1). All the CTP and UTP used for synthesis of the pRNA nanoparticles were 2′-fluoro modified, except the control unmodified pRNA nanoparticles used in the stability assays. Following an overnight transcription at 37° C., RNA strands were purified using RNA clean and concentrator kits (ZYMO research) and examined by 8 M urea denatured 8% PAGE gel. pRNA nanoparticles were assembled by mixing the equal molar amounts of p1 and p2 strands and gradually annealing from 90° C. to 20° C. in 1×RNA annealing buffer containing 50 mM Tris-HCl (pH 7.5), 50 mM NaCl and 1 mM EDTA on a PCR machine. The generated pRNA nanoparticles were examined by 8% native PAGE gels as previously described.^33 To generate AF647-conjugated pRNA nanoparticles, a 5′-termial AF647-conjugated RNA strand was synthesized (TriLink) for annealing. • Characterization of pRNA nanoparticles. The hydrodynamic diameter and Tm value of pRNA nanoparticles were determined using dynamic light scattering and TGGE assay, respectively, as previously described.^54 The AFM imaging of the pRNA nanoparticles was performed at the University of Nebraska Medical Center imaging facility as previously reported.^55 Briefly, the pRNA nanoparticles (5 μL) were deposited on APS modified mica ^56 for a total of 2 min of incubation time. Excess samples were washed with DI water and dried under a flow of Argon gas. AFM images in air were acquired using MultiMode AFM NanoScope IV system (Bruker Instruments) operating in tapping mode with 1.5 Hz scanning rate. TESPA probes from Bruker were used for tapping mode imaging. […] For stability analyses, the pRNA nanoparticles were treated with RNase A, 8 M urea, or 10% FBS supplemented DMEM medium at 37° C., respectively. The integrity of the pRNA nanoparticles was examined through native PAGE gel electrophoresis. • pRNA nanoparticle cellular uptake assay. BT474 and MDA-MB-231 cells were seeded into 4-well Lab-Tek chamber slides (Nalge Nunc international, Thermo scientific) and incubated with 10 μg/mL AF647-conjugated pRNAs at 4° C. for 30 min. After washing with PBS for three times, cells were incubated at 37° C. for another hour. Cells were then fixed with 4% formaldehyde, permeated with 0.25% Trinton X-100, and stained with FITC-conjugated β-actin antibody (Sigma) and DAPI (Sigma). pRNA nanoparticle uptake was examined using a laser scanning confocal microscope (Zeiss). For flow cytometry analyses, BT474 cells were incubated with AF647-labeled pRNA nanoparticles at 37° C. for 3 h. After washing three times with PBS, the cellular uptake of pRNAs was determined using a BD LSRFortessa™ flow cytometer. • Real-time PCR. […]

recombinant Dicer enzyme = target: T1, recombinant Dicer enzyme (Homo sapiens, UniProt Q9UPY3); experiment: Digestion with recombinant Dicer enzyme, siRNA release; type: biochemical; conditions: 1 μg pRNA nanoparticles, 37° C., 12 h
T1 construct: purchased Genlantis
T1 sequence (Q9UPY3 whole entry): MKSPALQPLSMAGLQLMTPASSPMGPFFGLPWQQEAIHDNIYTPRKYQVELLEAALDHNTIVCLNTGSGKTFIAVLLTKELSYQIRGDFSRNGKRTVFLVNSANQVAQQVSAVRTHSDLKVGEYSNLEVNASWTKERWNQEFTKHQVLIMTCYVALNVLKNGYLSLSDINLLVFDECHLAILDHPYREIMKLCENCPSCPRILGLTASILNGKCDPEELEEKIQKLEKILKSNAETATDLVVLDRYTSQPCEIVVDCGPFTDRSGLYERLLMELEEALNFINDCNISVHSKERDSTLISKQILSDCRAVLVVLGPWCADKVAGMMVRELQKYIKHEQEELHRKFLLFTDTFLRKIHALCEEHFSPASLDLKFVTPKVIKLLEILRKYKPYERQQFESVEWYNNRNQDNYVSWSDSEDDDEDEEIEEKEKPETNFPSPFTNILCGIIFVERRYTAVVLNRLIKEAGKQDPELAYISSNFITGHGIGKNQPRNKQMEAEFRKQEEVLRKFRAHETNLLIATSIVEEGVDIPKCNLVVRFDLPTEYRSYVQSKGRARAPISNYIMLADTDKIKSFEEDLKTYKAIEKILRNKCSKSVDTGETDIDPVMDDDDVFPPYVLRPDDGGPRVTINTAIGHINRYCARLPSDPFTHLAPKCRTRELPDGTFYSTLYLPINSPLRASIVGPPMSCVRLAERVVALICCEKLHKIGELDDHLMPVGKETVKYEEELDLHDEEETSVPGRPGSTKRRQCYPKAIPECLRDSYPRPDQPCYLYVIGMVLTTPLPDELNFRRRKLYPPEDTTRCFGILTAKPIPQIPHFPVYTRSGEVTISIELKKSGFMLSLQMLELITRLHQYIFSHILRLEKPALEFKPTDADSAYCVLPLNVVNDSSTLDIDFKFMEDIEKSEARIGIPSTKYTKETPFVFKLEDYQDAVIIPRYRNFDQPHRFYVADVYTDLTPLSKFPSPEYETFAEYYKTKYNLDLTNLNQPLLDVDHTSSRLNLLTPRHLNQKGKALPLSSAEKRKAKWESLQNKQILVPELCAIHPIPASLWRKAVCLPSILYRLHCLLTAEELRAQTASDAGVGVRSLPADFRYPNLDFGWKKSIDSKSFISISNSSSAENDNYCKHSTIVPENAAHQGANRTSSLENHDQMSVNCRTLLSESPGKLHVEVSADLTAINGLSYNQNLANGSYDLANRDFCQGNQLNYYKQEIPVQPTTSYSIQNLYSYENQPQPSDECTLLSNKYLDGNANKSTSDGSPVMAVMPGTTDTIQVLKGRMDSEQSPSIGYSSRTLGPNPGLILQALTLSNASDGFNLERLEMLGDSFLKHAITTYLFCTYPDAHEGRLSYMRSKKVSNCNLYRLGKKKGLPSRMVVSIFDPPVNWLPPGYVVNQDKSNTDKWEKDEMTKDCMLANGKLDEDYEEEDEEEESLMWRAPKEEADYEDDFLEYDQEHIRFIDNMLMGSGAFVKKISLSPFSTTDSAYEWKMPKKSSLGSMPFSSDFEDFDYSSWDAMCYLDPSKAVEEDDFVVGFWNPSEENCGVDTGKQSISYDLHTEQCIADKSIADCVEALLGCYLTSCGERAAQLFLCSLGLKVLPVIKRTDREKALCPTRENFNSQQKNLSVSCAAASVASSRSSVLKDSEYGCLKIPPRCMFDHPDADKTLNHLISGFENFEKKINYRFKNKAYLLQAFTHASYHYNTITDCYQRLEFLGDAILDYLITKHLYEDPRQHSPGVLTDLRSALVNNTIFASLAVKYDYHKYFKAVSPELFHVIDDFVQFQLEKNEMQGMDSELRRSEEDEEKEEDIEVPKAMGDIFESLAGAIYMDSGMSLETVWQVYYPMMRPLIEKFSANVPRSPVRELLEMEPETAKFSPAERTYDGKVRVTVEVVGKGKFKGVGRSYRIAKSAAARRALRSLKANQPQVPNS
Experimental: FIG. 7A) Six HER2-targeting RNA aptamers were selected from previous literatures, and their secondary structures were predicted using Srna-fold software. FIG. 7B) Six p2 strands containing the six different HER2 RNA aptamers were synthesized and annealed with the same p1 strand to generate six different pRNA-HER2apt-MED1 siRNA nanoparticles, respectively, followed by examination using 8% native PAGE gel electrophoresis. FIG. 7C) BT474 cells were treated with above pRNA nanoparticles for 48 h, and then MED1 protein level was determined by western blotting. […] FIG. 7D) 1 μg pRNA nanoparticles were incubated with recombinant Dicer enzyme (Genlantis) at 37° C. for 12 h, the product was separated by 8% native PAGE gel.
Next, the pRNA nanoparticles were digested with recombinant Dicer enzyme (Genlantis) ^34 to confirm the release of siRNAs as indicated by the generation of 21-23 bp small RNAs after digestion (FIG. 7D).

B1: pRNA-HER2apt-siMED1: 3-WJ pRNA nanoparticle bearing a HER2-targeting RNA aptamer and two different MED1 siRNAs; strands p1 SEQ ID NO: 3, p2 SEQ ID NO: 4 (nucleic acid)
chain 1: GGACAGUGAAAGUGAGUCAAAGGAUCAAUCAUGGCCAAAGAUGUUACUUUGAGAGCCUU
chain 2: GGCUCUCAAAGUAACAUCUAAGGCCAUGUGUAUGUGGGGGGAGGACGAUGCGGUCUGCUGUGCUUGAUAUGCCCCAGACGACUCGCCCCCCACAUACUUUGUUGAUCCAAUGACUCACUUUCACUGUCCUU
modifications: 2'-F modification; third strand may lack entry; pRNA-HER2apt-siMED1, p1; pRNA-HER2apt-siMED1, p2
TFF-1 mRNA expression [1]: significantly down-regulated
c-Myc mRNA expression [1]: significantly down-regulated
cyclin D1 mRNA expression [1]: significantly down-regulated
MMP-9 expression in tumor tissues ([2]; combined with tamoxifen): further inhibited
TFF-1 expression in tumor tissues ([2]; combined with tamoxifen): further inhibited
c-Myc expression in tumor tissues ([2]; combined with tamoxifen): further inhibited
cyclin D1 expression in tumor tissues ([2]; combined with tamoxifen): further inhibited
MMP-9 expression in tumor tissues ([2]; pRNA treatment): significantly down-regulated
TFF-1 expression in tumor tissues ([2]; pRNA treatment): significantly down-regulated
c-Myc expression in tumor tissues ([2]; pRNA treatment): significantly down-regulated
cyclin D1 expression in tumor tissues ([2]; pRNA treatment): significantly down-regulated
small RNAs generated after Dicer digestion (release of siRNAs) (recombinant Dicer enzyme): 21-23 bp
